US20140100836A1 (ETH ZURICH, published 2014)
Non-standard residues stand in square brackets, D forms with d. Phe(4-NO2) = N[C@@H](Cc1ccc([N+](=O)[O-])cc1)C(=O)O

Molecular target: T1, acceptor hexapeptide Ac-DQNATF{4NO2}-NH2 (SMILES CC(=O)N[C@@H](CC(=O)O)C(=O)N[C@@H](CCC(N)=O)C(=O)N[C@@H](CC(N)=O)C(=O)N[C@@H](C)C(=O)N[C@H](C(=O)N[C@@H](Cc1ccc([N+](=O)[O-])cc1)C(N)=O)[C@@H](C)O)
T1 construct: also called DQNATF{pNO2}; acceptor peptide
T1 peptide: Ac-DQNAT[Phe(4-NO2)]-NH2
Assay: calculated from the X-ray co-crystal structure with areaimol

B1: oligosaccharyltransferase (OST) PgIB from Campylobacter lari, full length, with C-terminal decahistidine affinity tag (expressed from pSF2, purified in DDM and … (enzyme)
chain: MELQQNFTDNNSIKYTCILILIAFAFSVLCRLYWVAWASEFYEFFFNDQLMITTNDGYAFAEGARDMIAGFHQPNDLSYFGSSLSTLTYWLYSILPFSFESIILYMSTFFASLIVVPIILIAREYKLTTYGFIAALLGSIANSYYNRTMSGYYDTDMLVLVLPMLILLTFIRLTINKDIFTLLLSPIFIMIYLWWYPSSYSLNFAMIGLFGLYTLVFHRKEKIFYLAIALMIIALSMLAWQYKLALIVLLFAIFAFKEEKINFYMIWALIFISISILHLSGGLDPVLYQLKFYVFKASDVQNLKDAAFMYFNVNETIMEVNTIDPEVFMQRISSSVLVFILSFIGFILLCKDHKSMLLALPMLALGFMALRAGLRFTIYAVPVMALGFGYFLYAFFNFLEKKQIKLSLRNKNILLILIAFFSISPALMHIYYYKSSTVFTSYEASILNDLKNKAQREDYVVAWWDYGYPIRYYSDVKTLIDGGKHLGKDNFFSSFVLSKEQIPAANMARLSVEYTEKSFKENYPDVLKAMVKDYNQTSAKDFLESLNDKNFKFDTNKTRDVYIYMPYRMLRIMPVVAQFANTNPDNGEQEKSLFFSQANAIAQDKTTGSVMLDNGVEIINDFRALKVEGASIPLKAFVDIESITNGKFYYNEIDSKAQIYLLFLREYKSFVILDESLYNSAYIQMFLLNQYDQDLFEQVTNDTRAKIYRLKR
notes: Residues 283-306, 605-607 and the His tag are disordered in the structure; also called C. lari PgIB; PglB
contact surface of the peptide buried at the interface of the TM and periplasmic domains: ~80%
